Measured values published in publication PMC3562662.

Substrate: O=C(O)/C=C/c1ccc(O)c(O)c1
Experiment: radiometric methyltransferase assay, scintillation counting, nonlinear Michaelis-Menten fit
Type: biochemical, Brachypodium distachyon
Settings: co-substrate S-[methyl-14C]-adenosyl-L-methionine plus unlabeled SAM, 0.1 M Tris-HCl pH 7.5, 30°C, 20 min, methods heading b55 names BdCOMT1

B1: BdCOMT4 (Brachypodium distachyon) (protein)
chain: MGSTAADMAATADEEACMFALQLASSSILPMTLKNAIELGLLDTLVQASGKSLTPAEVAAKLPSSSNPAAPDMVDRMLRLLASYGVVSCAVEEGENGKLSRRYAAAPVCKWLTPNEDGVSMAALALMNQDKVLMESWYYLKDAVLDGGIPFNKAYGMSAFEYHGTDPRFNRVFNEGMKNHSIIITKKLLDLYPGFEGLGTLVDVGGGVGATVGAIVARHPAIKGINFDLPHVISEGIPFPGVTHVGGDMFQKVPSGDAILMKWILHDWSDAHCATLLKNCYDALPAHGKVVIVECILPVNPEATPKAQGVFHVDMIMLAHNPGGKERYEREFEELARGAGFTGVKATYIYANAWAIEFTK
notes: full-length cDNA (from Bd21-3 plants) in pQE-T7-1, NdeI/XhoI, His-tagged; primer adds Met-Lys-Gln before native Met; expressed in E. coli, Ni-NTA purified
For B1, the Km was 187 µM.
